Reference: patent US20220305006A1, “COMPOSITIONS AND METHODS FOR THE TREATMENT OF NEUROLOGICAL DISEASES AND DISORDERS” (The Regents of the University of California, priority 2019, published 2022)

Molecular target: BACE1 structure PDB ID: 1XN3 after removal of BACE inhibitor 1 (apo model used in silico) (UniProt P56817)
Assay: computed, not measured: MMPBSA (AMBER) on 10000 snapshots of a 50 ns molecular dynamics run

Sequence of BACE1 structure PDB ID: 1XN3 after removal of BACE inhibitor 1 (apo model used in silico) (P56817 58-446 limits assumed): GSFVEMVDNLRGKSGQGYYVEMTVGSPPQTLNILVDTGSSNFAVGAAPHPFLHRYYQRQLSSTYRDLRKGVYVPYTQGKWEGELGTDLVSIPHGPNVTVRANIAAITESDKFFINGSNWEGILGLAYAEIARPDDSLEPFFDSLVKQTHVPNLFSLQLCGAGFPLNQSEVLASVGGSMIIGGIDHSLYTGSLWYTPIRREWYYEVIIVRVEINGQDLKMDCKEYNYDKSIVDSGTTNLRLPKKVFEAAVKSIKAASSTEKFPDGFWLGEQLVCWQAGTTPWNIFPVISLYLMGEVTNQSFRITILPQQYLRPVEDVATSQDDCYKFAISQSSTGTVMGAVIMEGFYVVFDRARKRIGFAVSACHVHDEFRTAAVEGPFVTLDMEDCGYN

| Binder | BACE Binding ΔG |
| --- | --- |
| Ac-NLTTYPYFIPL-NH2 [Peptide 65005] | -25.4 kcal/mol |
| Ac-ALYPYFLPISAK-NH2 [Peptide 65007] | -45.1 kcal/mol |
